Here are results for 34 sequences from the supplement of paper PMC9170038.

The data set relates to MS2 coat protein. The data set can be described thus: apparent KD of MS2 coat protein; higher = weaker reporter binding. The following applies: Eterna round: R107. A digest of the protocol:
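Apparent KD stands for the median, per design, of fits to normalised cluster binding curves. The curves came from titrating on-chip-transcribed RNA switches on Illumina sequencing clusters with SNAP-549-labelled MS2 coat protein, twofold from 0.7 or 1.5 nM to 3 µM. Buffer was 100 mM Tris-HCl pH 7.5, 80 mM KCl, 4 mM MgCl2, without or with constant ligand.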

The mark [1] stands for this setting: input ligand: theophylline 20 uM.
Where [2] appears, read: input ligand: theophylline 2 mM.
The mark [3] stands for this setting: input ligand: tryptophan 2.4 mM.

Turning to “AACAUGAGGAUCACCCAUGUCCUCGUGAUUCGAGGACCGGUACGGCCGCCACUCGGUCCUCGCGAGGAGGAGUCAAAGACUCCAA [Omei Trp A SS A v1]”, the “apparent KD of MS2 coat protein” value by setting is: (input ligand: arginine 13.2 mM) 98 nM; (input ligand: none) 144 nM; under setting [1], 229 nM; under setting [2], 204 nM; under setting [3], 137 nM.
Consider “AAACGAGAGACAGAUACCAGCGCAGGAACGGAGUAUGGUGACAUGAGGAUCACCCAUGUGCGCCCUUGGCAGCUGAGCCGUAUUG [theeternabot_exclusion_MS2_Theo_B_37]”, for which the “apparent KD of MS2 coat protein” value by setting is: (input ligand: arginine 13.2 mM) 30 nM; under setting [1], 43.3 nM; under setting [3], 33.5 nM.
With “GGGUCAGGCGCGGCCGCCACUGCGGUGAUGUGACAUGAGGAUCACCCAUGUUGUCAUGUGGCACAUAGGACCGGGCGCCUGGCCC [#1 Exclusion - Tryptophan B Attempt #7 (HarryS)]”, the “apparent KD of MS2 coat protein” value is, setting by setting: (input ligand: arginine 13.2 mM) 25.4 nM; under setting [1], 41.5 nM; under setting [2], 33.2 nM.
On to “GCUAGUGGCAGAAGGAGCGAGGCCCGCGCACAUAACAUGAGGAUCACCCAUGUGGCGAGACCUCAGGUAGGUCGCUGCCACUAGC [EAB NP+V2 #1]”, for which the “apparent KD of MS2 coat protein” value was 12 nM (input ligand: arginine 13.2 mM); 11.4 nM (input ligand: none); 25.8 nM under setting [1]; 14.2 nM under setting [2]; 12.4 nM under setting [3].
As to “UGGGUAGAAUAGAUAGAUAGAUAAACUGAAGGAGCGAGAAUAAACUCAGGUAGGUCGCAGACAUGAGGAUCACCCAUGUAGAUGG [Same State Arginine A GF15]”, the “apparent KD of MS2 coat protein” value is, setting by setting: (input ligand: arginine 13.2 mM) 91.1 nM; (input ligand: none) 98.8 nM; under setting [1], 87.2 nM; under setting [2], 163 nM; under setting [3], 88.9 nM.
With “UGUACAUGAGGAUCACCCAUGUUACAUGAUACCAGACAUGAGAGUGUCCCUUGGCAGCAUGGAGCUGAUACGGCGGGAAGCCGGA [#09 SameState-TheophyllineA]”, the “apparent KD of MS2 coat protein” value runs as follows: (input ligand: arginine 13.2 mM) 26.1 nM; under setting [1], 40.4 nM; under setting [3], 27 nM.
Regarding “ACGAUAGGACACGAGGAUCACCCGUGUGAUACCAGCCUGGAAACAGGCCCUUGGCAGCACAAAUACUCCAAUAACCUAUCGAAUA [TheoAX 10 #MicroSwitchBubble #AlternativeMS2]”, the “apparent KD of MS2 coat protein” value (input ligand: arginine 13.2 mM) stood at 56.5 nM; the “apparent KD of MS2 coat protein” value (input ligand: none) was 96.3 nM; the “apparent KD of MS2 coat protein” value under setting [1] stood at 183 nM; the “apparent KD of MS2 coat protein” value under setting [2] came to 569 nM; the “apparent KD of MS2 coat protein” value under setting [3] turned out to be 106 nM.
For “UGUAUGUGAUCUGAUACCAGUCCAACUGGUAAAGCGUGAGGAUCACCCAUGCAAAAUUGGGACCCUUGGCAGCAGAUCGCAUACU”, in that order: 48.6 nM, 337 nM, 290 nM, 208 nM and 185 nM.
In the same order, the values of “AUGACUUACGGGCGCCAUUUGUAAUAGGAAGGAGCGGCGAGAUAGCCAGGUAGGUCGCCUAUACAUGAGGAUCACCCAUGUCACC [Vegeorbe]” are 66.8 nM, 120 nM, 103 nM, 81.8 nM and 112 nM.
For “AGUGACUACAUCUGGAAUUAAGGUAGGGAAGGAGCGCGGUAAGACGCAGGUAGGUCGCCCUACAUGAGGAUCACCCAUGUGAUGU [XARG-A 28]”, the “apparent KD of MS2 coat protein” value is 75.5 nM (input ligand: arginine 13.2 mM); 354 nM (input ligand: none); 264 nM under setting [1]; 331 nM under setting [2]; 232 nM under setting [3].
Turning to “AAGGUGAUCCGUGAUACCAGCUCAACAUGAGGAUCACCCAUGUAACGGACGAAAGUCCGGAGCCCUUGGCAGCACGGUUGCCAAG [(M)'-(Theo1)-(Ms2)-(Theo2)-(M'')-(T2)'_Design1b]”, the “apparent KD of MS2 coat protein” value by setting is: (input ligand: arginine 13.2 mM) 29.4 nM; (input ligand: none) 127 nM; under setting [1], 62 nM; under setting [2], 12.5 nM; under setting [3], 83.8 nM.
In the same order, the values of “UGGGUACAUGAGGAUCACCCAUGUACUGAAGGAGCGAGAAAUAUCUCAGGUAGGUCGCAGACAUGAGGAUCACCCAUGUAGUAGG [Exclusion Arginine A GF 11]” are 29.5 nM, 28.1 nM, 31.8 nM, 33.1 nM and 26.7 nM.
For “CUCCGAGGCUAUACUAUCCGCCUCAGUGAUACCAGAAUACCUAUAUUCCCUUGGCAGCAUCACAUGAGGAUCACCCAUGUGCCAU [SSTheo A #14]”, the “apparent KD of MS2 coat protein” value is, setting by setting: (input ligand: arginine 13.2 mM) 13.4 nM; under setting [1], 16.3 nM; under setting [3], 12.2 nM.
“CCGGGCCCGGGAGACCGGGCCCGGACUGAAGGAGCGGGAAUAAACCCAGGUAGGUCGCAGAGAUCCACAUGAGGAUCACCCAUGU [!0.U]”: the “apparent KD of MS2 coat protein” value came to 133 nM (input ligand: arginine 13.2 mM); 54.5 nM (input ligand: none); 51.7 nM under setting [1]; 36.5 nM under setting [2]; 36.8 nM under setting [3].
Consider “AACAUCACAACGGCCGCCACUGCACAUGACAACAUGAGGAUCACCCAUGUGGAUCACCCAUGUCCCAGGACCGGGUUAUGAGGAU [Same State - Tryptophan B #1]”, for which the “apparent KD of MS2 coat protein” value came to 23.7 nM (input ligand: arginine 13.2 mM), 39.9 nM under setting [1] and 33.6 nM under setting [2].
On to “UGAUAUGUGGGAAGGAGCGCAUACUUCACAUGAGGAUCACCCAUGUCAAGACGUGAGUCAGUGCAGGUAGGUCGCCUAGUUAUGA [Same State - Arginine B (Freestyle 19)]”, for which the “apparent KD of MS2 coat protein” value (input ligand: arginine 13.2 mM) is 36.8 nM; the “apparent KD of MS2 coat protein” value (input ligand: none) came out at 124 nM; the “apparent KD of MS2 coat protein” value under setting [1] was found to be 101 nM; the “apparent KD of MS2 coat protein” value under setting [2] turned out to be 147 nM; the “apparent KD of MS2 coat protein” value under setting [3] was found to be 85.3 nM.
For the sequence “GAGGUCCUGAGAGAUACCAGUGAGGCCACAUGAGGAUCACCCAUGUCCCUCACUCCGGCCCACCCUUGGCAGCUCGGAAGGUAAA [Exclusion Theophylline B GF 23]”, the “apparent KD of MS2 coat protein” value by setting is: (input ligand: arginine 13.2 mM) 14.9 nM; under setting [1], 29.7 nM; under setting [3], 17.5 nM.
For “AGUAAUCUAUCAGAUACCAGACCCUCUUUAACAUGAGGAUCACCCAUGUCUAUGUUCUACGUCCCUUGGCAGCUGUAAAUGAUAA [JR_SSTheophyB_Sub002]”, in that order: 34.9 nM, 80 nM and 57.7 nM.
As to “UAGUUGUAGUCGGCCGCCACUGUGAGCAUGGUUAACAUGAGGAUCACCCAUGUCCCGUACUAUAACAGGACCGGGACGUAGUUGC [#10 Same State - Tryptophan B]”, the “apparent KD of MS2 coat protein” value is 31.1 nM (input ligand: arginine 13.2 mM), 79.4 nM under setting [1] and 134 nM under setting [2].
In the same order, the values of “AACUGAAGCACCUUAUGCGGCGGCAAAACCCGAGGACCGGUACGGCCGCCACUCGAGUCGCAACAUGAGGAUCACCCAUGUGUAU [theeternabot_exclusion_MS2_Trp_A_30]” are 32.5 nM, 55.8 nM and 78.8 nM.
In the case of “UUGGUUAUGCGAAGGAGCGGGAAAUAUAUAUAUAUAAUCCUAACAUGAGGAUCACCCAUGUCCCAGGUAGGUCGCGCAUAGUUGG [12.I]”, the “apparent KD of MS2 coat protein” value amounted to 45.2 nM (input ligand: arginine 13.2 mM); 69.5 nM (input ligand: none); 80.3 nM under setting [1]; 83.3 nM under setting [2]; 69.1 nM under setting [3].
In the case of “UAUAUAUAUCACGAACUGUGGUGUAUGUCCCGAGGACCGGUACGGCCGCCACUCGCGUGGUUCCACAUGAGGAUCACCCAUGUUG [XTryp A #7]”, the “apparent KD of MS2 coat protein” value turned out to be 20.9 nM (input ligand: arginine 13.2 mM), 31.3 nM under setting [1] and 25.9 nM under setting [2].
With “ACAUGAGGAUCACCCAUGUUUGAUGUUCCUCGAGGACCGGUACGGCCGCCACUCGAACGAGUGGCGCGCGCGCGCGCGCGCGCGC [aQa]”, the “apparent KD of MS2 coat protein” value is, setting by setting: (input ligand: arginine 13.2 mM) 10.9 nM; (input ligand: none) 12.5 nM; under setting [1], 22.9 nM; under setting [2], 14.5 nM; under setting [3], 13 nM.
In the same order, the values of “UGGCAAGAGGGAAGGAGCGUCAGCAGAGUAACAUGAGGAUCACCCAUGUAGCACGUGGUGUGACAGGUAGGUCGCCCUCUGCCGU [SS-ArgB13]” are 28.5 nM, 32.4 nM, 77.1 nM, 46 nM and 28.3 nM.
For “ACGCGCAGCAGAAGGAGCGUCUUAAUUCUACAUGAGGAUCACCCAUGUUUACAUUGGAUAUGACAGGUAGGUCGCUGGUGUGCGA [#06 Same State - Arginine B]”, in that order: 15.9 nM, 18 nM, 18.1 nM, 19.6 nM and 15.6 nM.
“UGACAUUGCUCAGAUACCAGACAUGAGCAUCAGCCAUGUACCAAGAGUACAUGUUAAAAUGUCCCUUGGCAGCUGAGCAAUGUCU [Mod of Eli's TheoBX5 #AlternateMS2 v2]”: the “apparent KD of MS2 coat protein” value (input ligand: arginine 13.2 mM) stood at 73.6 nM; the “apparent KD of MS2 coat protein” value (input ligand: none) is 67.6 nM; the “apparent KD of MS2 coat protein” value under setting [1] is 203 nM; the “apparent KD of MS2 coat protein” value under setting [2] turned out to be 452 nM; the “apparent KD of MS2 coat protein” value under setting [3] worked out at 60.1 nM.
In the same order, the values of “GGUUGAAACUGAAGGAGCGAGAUCACAAGAUUGGGUCUAACAUGAGGAUCACCCAUGUAAUCUCAGGUAGGUCGCAGUGACCAAA [Exclusion Arginine B GF 13]” are 28 nM, 38.4 nM, 45.1 nM, 51.7 nM and 38.1 nM.
As for “CUUACACAUGAGGAUCACCCAUGUCAUGAUACCAGCCAAUACACUGGCCCUUGGCAGCAUCUCAGCCUCAGCUACAUUGACUGAC [theeternabot_sameState_MS2_Theo_A_2]”, the “apparent KD of MS2 coat protein” value is 18.9 nM (input ligand: arginine 13.2 mM), 28.2 nM under setting [1] and 17.8 nM under setting [3].
Regarding “ACACAUGAGGAUCACCCAUGUUGAGGAACACGAGGACCGGUACGGCCGCCACUCGACACAUGAGGAUCACCCAUGUGAUCACCCA [Same State Tryptophan A 2]”, the “apparent KD of MS2 coat protein” value by setting is: (input ligand: arginine 13.2 mM) 49.7 nM; under setting [1], 129 nM; under setting [2], 173 nM.
With “UACACAUGACAUGAUACCAGCCCAUGUGAACAUGAGGAUCACCCAUGUAUGAGGACAUGAGGCCCUUGGCAGCAUGUAUACAUGA [Same State Theophylline B 2]”, the “apparent KD of MS2 coat protein” value by setting is: (input ligand: arginine 13.2 mM) 11.6 nM; under setting [1], 12.7 nM; under setting [3], 11.4 nM.
For “AAGGGUGAGUCUCUAAUCCGUUUGACGGAUACCAGCGAGAGAUAUCGCCCUUGGCAGCCGACGACAUGAGGAUCACCCAUGUAAA [Exclusion - Theophylline A]”, in that order: 17 nM, 22 nM and 14 nM.
In the case of “AAGAGACAUGAGGAUCACCCAUGUGUUGAUACCAGAAACACAAAGUUCCCUUGGCAGCAAAUCUGAGCGAAACGAUCUAGAGCGC [theeternabot_sameState_MS2_Theo_A_30]”, the “apparent KD of MS2 coat protein” value is, setting by setting: (input ligand: arginine 13.2 mM) 43.3 nM; under setting [1], 84.9 nM; under setting [3], 70.6 nM.
For “UAUACAUGGGAUACCAUGGAUCCGAGUGAUACCAGCUAUCCGAAUAGCCCUUGGCAGCACAGUACAUGAGGAUCACCCAUGUAUA [Theo A SS t5]”, in that order: 27.8 nM, 30.2 nM and 18.6 nM.
With “CAUGAUAAGUUGGAUACCAGCAUAUGGAACAACAUGAGGAUCACCCAUGUCAAAUGACAUUGCCCUUGGCAGCCACCUACUGUCA [theeternabot_sameState_MS2_Theo_B_5]”, the “apparent KD of MS2 coat protein” value (input ligand: arginine 13.2 mM) amounted to 21.2 nM, the “apparent KD of MS2 coat protein” value under setting [1] worked out at 19.1 nM and the “apparent KD of MS2 coat protein” value under setting [3] came to 17.9 nM.
